Two molecules from publication doi:10.1101/2023.02.09.527830 can be followed below.

The data set concerns the target Lassa virus nucleoprotein NP (WT) (Lassa virus (AV strain), UniProt Q9DQX7). Kind of data set: native MS.

B1: 12 nt RNA (ssRNA)
RNA: ACACAAAGACCC
Consider B1, for which the binding result was “binds”.

B2: 9 nt RNA (ssRNA)
RNA: UAGGAAUCU
B2: the binding result is reported as “binds”.
